This note sets out measurements from publication PMC5964327.

For this experiment, the target named is T1, CHIP-myc (wild type), Q9UNE7.
T1 chain: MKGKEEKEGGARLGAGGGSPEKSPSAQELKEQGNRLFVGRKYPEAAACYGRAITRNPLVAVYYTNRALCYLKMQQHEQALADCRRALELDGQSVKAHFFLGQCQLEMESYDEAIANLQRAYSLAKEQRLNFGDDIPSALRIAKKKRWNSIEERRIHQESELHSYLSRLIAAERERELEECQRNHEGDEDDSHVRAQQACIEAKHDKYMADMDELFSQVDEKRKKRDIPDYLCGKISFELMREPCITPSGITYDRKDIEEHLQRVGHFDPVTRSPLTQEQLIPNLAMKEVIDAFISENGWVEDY
The experiment in a line: co-immunoprecipitation (anti-flag IP, anti-myc immunoblot), quantified. Conditions: chain shown with the change, serum deprived for 24 h, co-transfected with HSP70-V5 and CHIP-myc, read off a plot. (Immunoblotting shows a protein as a band on a membrane.)

B1: NEK10-flag (wild type), Q6ZWH5-1 T812A (protein)
chain: MPDQDKKVKTTEKSTDKQQEITIRDYSDLKRLRCLLNVQSSKQQLPAINFDSAQNSMTKSEPAIRAGGHRARGQWHESTEAVELENFSINYKNERNFSKHPQRKLFQEIFTALVKNRLISREWVNRAPSIHFLRVLICLRLLMRDPCYQEILHSLGGIENLAQYMEIVANEYLGYGEEQHTVDKLVNMTYIFQKLAAVKDQREWVTTSGAHKTLVNLLGARDTNVLLGSLLALASLAESQECREKISELNIVENLLMILHEYDLLSKRLTAELLRLLCAEPQVKEQVKLYEGIPVLLSLLHSDHLKLLWSIVWILVQVCEDPETSVEIRIWGGIKQLLHILQGDRNFVSDHSSIGSLSSANAAGRIQQLHLSEDLSPREIQENTFSLQAACCAALTELVLNDTNAHQVVQENGVYTIAKLILPNKQKNAAKSNLLQCYAFRALRFLFSMERNRPLFKRLFPTDLFEIFIDIGHYVRDISAYEELVSKLNLLVEDELKQIAENIESINQNKAPLKYIGNYAILDHLGSGAFGCVYKVRKHSGQNLLAMKEVNLHNPAFGKDKKDRDSSVRNIVSELTIIKEQLYHPNIVRYYKTFLENDRLYIVMELIEGAPLGEHFSSLKEKHHHFTEERLWKIFIQLCLALRYLHKEKRIVHRDLTPNNIMLGDKDKVTVTDFGLAKQKQENSKLTSVVGTILYSCPEVLKSEPYGEKADVWAVGCILYQMATLSPPFYSTNMLSLATKIVEAVYEPVPEGIYSEKVTDTISRCLTPDAEARPDIVEVSSMISDVMMKYLDNLSTSQLSLEKKLERERRRAQRYFMEANRNTVTCHHELAVLSHETFEKASLSSSSSGAASLKSELSESADLPPEGFQASYGKDEDRACDEILSDDNFNLENAEKDTYSEVDDELDISDNSSSSSSSPLKESTFNILKRSFSASGGERQSQTRDFTGGTGSRPRPALLPLDLLLKVPPHMLRAHIKEIEAELVTGWQSHSLPAVILRNLKDHGPQMGTFLWQASAGIAVSQRKVRQISDPIQQILIQLHKIIYITQLPPALHHNLKRRVIERFKKSLFSQQSNPCNLKSEIKKLSQGSPEPIEPNFFTADYHLLHRSSGGNSLSPNDPTGLPTSIELEEGITYEQMQTVIEEVLEESGYYNFTSNRYHSYPWGTKNHPTKR
On to B1, for which the response (arbitrary units) came out at 5 (+FSK (30'), parent: est. 100) and 28 (-FSK, parent: est. 10).
